Measured values from patent US20250043302A1, “MUTATED HYDROXYPHENYLPYRUVATE DIOXYGENASE POLYPEPTIDE, AND CODING GENE AND USE THEREOF” (BEIJING DABEINONG BIOTECHNOLOGY CO., LTD., priority 2021, published 2025).
Changes are numbered by the printed parent chain. Numbers in names are those of the source.

B1: BnHPPD-02: nucleotide sequence encoding wild-type Brassica napus HPPD; vector DBN11742 (nucleic acid)
DNA: ATGGGACATGAAAACGCGGCAGTGTGTGAAACTCAACAACATGATGACGCCGCCTCCCCGGGGTTTAAACTTGTCGGGTTCTCAAAATTTGTTAGGAAGAATCCAAAGTCTGACAAGTTCAAGGTGAAACGCTTCCACCACATCGAGTTCTGGTGCGGGGATGCAACAAATGTTTCACGCCGCTTTTCATGGGGACTAGGAATGAGGTTTAGCGCAAAGAGTGATCTCTCCACTGGTAATATGGTTCATGCGAGCTACTTGCTCACATCTGGAGACCTGAGATTCCTCTTCACCGCACCATATTCTCCCTCCCTGTCAGCTGGTGAAGCTCAGCCTTCAGCAACTGCAAGTATCCCTTCGTTTGATCATGCATCGTGCAGGTCTTTCTTCAGTTCACATGGACTCGGCGTCAGAGCAGTAGCGATCGAAGTAGAGGATGCTGAATCAGCTTTCTCCATATCTGTCGCCAACGGCGCGGTGCCTTCTTCTCCACCAAACGTCTTGAATGGTGCTGTTACCATTGCTGAGGTGAAGCTGTACGGAGATGTTGTTTTAAGATATGTTTCATATTACAATGGGACCGTTTCTTTTCTTCCCGGCTTTGAATCTGTTGATGATACTTCTTCCTTCCCTCTTGATTATGGGATCAGGCGGCTGGACCACGCCGTCGGCAACGTGCCGGAGTTAGGTCCTGCTTTGACATATCTTGCCGGCTTCACTGGATTCCATCAATTTGCAGAGTTTACGGCTGACGACGTGGGGACCGCGGAGAGTGGGCTGAACTCAGCAGTCTTGGCCAACAATGATGAAATGGTGCTCCTCCCCATCAATGAACCTGTGCATGGAACAAAGAGAAAGTCGCAGATTCAAACATTTTTAGAGCACAATGAGGGAGCTGGGCTACAGCACCTCGCATTGATGTCAGAAGATATTTTTCGAACGTTGAGGGAGATGCGGAAACGATCTGGTGTAGGCGGCTTTGACTTCATGCCATCCCCTCCGCCAACCTACTACAAGAACCTGAAGAAGAGGGTTGGAGACGTCCTTTCCGAGGAGCAAATTGAAGAATGTGAGGAGCTTGGAATTCTGGTGGACAGAGATGATCAAGGAACACTACTTCAGATCTTCACAAAACCATTGGGCGACAGGCCAACGATATTCATTGAGATCATTCAGCGCGTTGGATGCATGAAGCGTGATGAGGAAGGGAAGGTCTACCAGAGTGGCGGTTGTGGTGGATTTGGAAAAGGAAATTTTTCTGAGCTGTTCAAAAGCATAGAAGAGTATGAGAAAACATTGGAGGCCAAGCAGCTTGTTGGTTGA
modifications: BnHPPD-02 Nucleotide Sequence
notes: vector DBN11742
B2: BnHPPDm-F372A-F383W-02: nucleotide sequence encoding Brassica napus HPPD with F372A+F383W; vector DBN11745 (nucleic acid)
DNA: B1 DNA with T1126G, T1127C, T1160G, C1161G
modifications: BnHPPDm-F372A-F383W-02 Nucleotide Sequence
notes: vector DBN11745

How the values were obtained:
Assay type in all cases: in vivo
[1] = tested on: Arabidopsis thaliana T1 plants; test: Isoxaflutole tolerance of transgenic Arabidopsis thaliana T1 plants (spray, bleached leaf area grade, damage score); design: Scores (pesticide damage): scale not given here; settings: spray, Arabidopsis thaliana T1 plants; for Classification and statistics of the grade of pesticide damage: Grade 0 (number of plants) / Classification and statistics of the grade of pesticide damage: Grade 1 (number of plants) / Classification and statistics of the grade of pesticide damage: Grade 2 (number of plants) / Classification and statistics of the grade of pesticide damage: Grade 3 (number of plants): 16 plants
In short: (§1)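 Read-out: per-plant damage grade 0–3 from proportion of bleached leaf area at 7 DAT (1 <50%, 2 >50%, 3 100%). Plants were T1 transformants, glufosinate-selected, plus wild-type CK, sprayed 18 days post-sowing. Rates: topramezone 25–200, isoxaflutole 35–280, mesotrione 52.5–420 g ai/ha.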

[2] = tested on: Arabidopsis thaliana T1 plants; test: Mesotrione tolerance of transgenic Arabidopsis thaliana T1 plants (spray, bleached leaf area grade, damage score); design: Scores: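 damage score 0-100 computed as Σ(N×S)/(T×M)×100 over grades 0-3 with higher meaning more damage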; settings: Arabidopsis thaliana T1 plants; for Grade 0 (classification and statistics of the grade of pesticide damage; number of plants) / Grade 1 (classification and statistics of the grade of pesticide damage; number of plants) / Grade 2 (classification and statistics of the grade of pesticide damage; number of plants) / Grade 3 (classification and statistics of the grade of pesticide damage; number of plants): 16 plants
In short: as §1

[3] = tested on: Arabidopsis thaliana T1 plants; test: Topramezone tolerance of transgenic Arabidopsis thaliana T1 plants (spray, bleached leaf area grade, damage score); settings: 7 DAT, Table 4; for Classification and statistics of the grade of pesticide damage: Grade 0 / Classification and statistics of the grade of pesticide damage: Grade 1 / Classification and statistics of the grade of pesticide damage: Grade 2 / Classification and statistics of the grade of pesticide damage: Grade 3: number of plants; for Scores: pesticide damage score 0-100
In short: as §1

[4] = isoxaflutole 35 g ai/ha (0.5x field concentration)
[5] = isoxaflutole 70 g ai/ha (1x field concentration)

Molecule | Resistance evaluation [1, 4] | Scores (pesticide damage) [1, 4] | Classification and statistics of the grade of pesticide damage: Grade 0 (number of plants) [1, 4] | Classification and statistics of the grade of pesticide damage: Grade 1 (number of plants) [1, 4] | Classification and statistics of the grade of pesticide damage: Grade 2 (number of plants) [1, 4] | Classification and statistics of the grade of pesticide damage: Grade 3 (number of plants) [1, 4] | Resistance evaluation [1, 5] | Scores (pesticide damage) [1, 5] | Classification and statistics of the grade of pesticide damage: Grade 0 (number of plants) [1, 5] | Classification and statistics of the grade of pesticide damage: Grade 1 (number of plants) [1, 5] | Classification and statistics of the grade of pesticide damage: Grade 2 (number of plants) [1, 5] | Classification and statistics of the grade of pesticide damage: Grade 3 (number of plants) [1, 5] | Resistance evaluation ([2]; mesotrione 52.5 g ai/ha) | Scores ([2]; mesotrione 52.5 g ai/ha) | Grade 0 (classification and statistics of the grade of pesticide damage; number of plants) ([2]; mesotrione 52.5 g ai/ha) | Grade 1 (classification and statistics of the grade of pesticide damage; number of plants) ([2]; mesotrione 52.5 g ai/ha) | Grade 2 (classification and statistics of the grade of pesticide damage; number of plants) ([2]; mesotrione 52.5 g ai/ha) | Grade 3 (classification and statistics of the grade of pesticide damage; number of plants) ([2]; mesotrione 52.5 g ai/ha) | Resistance evaluation ([2]; mesotrione 105 g ai/ha) | Scores ([2]; mesotrione 105 g ai/ha) | further results
B1 | Non-resistant | 100 | 0 | 0 | 0 | 16 | Non-resistant | 100 | 0 | 0 | 0 | 16 | Non-resistant | 100 | 0 | 0 | 0 | 16 | Non-resistant | 100 | Grade 0 (classification and statistics of the grade of pesticide damage; number of plants) ([2]; mesotrione 105 g ai/ha): 0; Grade 1 (classification and statistics of the grade of pesticide damage; number of plants) ([2]; mesotrione 105 g ai/ha): 0; Grade 2 (classification and statistics of the grade of pesticide damage; number of plants) ([2]; mesotrione 105 g ai/ha): 0; Grade 3 (classification and statistics of the grade of pesticide damage; number of plants) ([2]; mesotrione 105 g ai/ha): 16; Classification and statistics of the grade of pesticide damage: Grade 0 ([3]; topramezone 25 g ai/ha (1×)): 0; Classification and statistics of the grade of pesticide damage: Grade 1 ([3]; topramezone 25 g ai/ha (1×)): 0; Classification and statistics of the grade of pesticide damage: Grade 2 ([3]; topramezone 25 g ai/ha (1×)): 0; Classification and statistics of the grade of pesticide damage: Grade 3 ([3]; topramezone 25 g ai/ha (1×)): 16; Classification and statistics of the grade of pesticide damage: Grade 0 ([3]; topramezone 100 g ai/ha (4×)): 0; Classification and statistics of the grade of pesticide damage: Grade 1 ([3]; topramezone 100 g ai/ha (4×)): 0; Classification and statistics of the grade of pesticide damage: Grade 2 ([3]; topramezone 100 g ai/ha (4×)): 0; Classification and statistics of the grade of pesticide damage: Grade 3 ([3]; topramezone 100 g ai/ha (4×)): 16; Scores ([3]; topramezone 25 g ai/ha (1×)): 100; Scores ([3]; topramezone 100 g ai/ha (4×)): 100; Resistance evaluation ([3]; topramezone 25 g ai/ha (1×)): non-resistant (non-resistant plants (scores 68-100)); Resistance evaluation ([3]; topramezone 100 g ai/ha (4×)): non-resistant (non-resistant plants (scores 68-100))
B2 | Moderately | 29 | 5 | 8 | 3 | 0 | Moderately | 33 | 3 | 10 | 3 | 0 | Moderately | 31 | 5 | 8 | 2 | 1 | Poorly resistant | 40 | Grade 0 (classification and statistics of the grade of pesticide damage; number of plants) ([2]; mesotrione 105 g ai/ha): 0; Grade 1 (classification and statistics of the grade of pesticide damage; number of plants) ([2]; mesotrione 105 g ai/ha): 13; Grade 2 (classification and statistics of the grade of pesticide damage; number of plants) ([2]; mesotrione 105 g ai/ha): 3; Grade 3 (classification and statistics of the grade of pesticide damage; number of plants) ([2]; mesotrione 105 g ai/ha): 0; Classification and statistics of the grade of pesticide damage: Grade 0 ([3]; topramezone 25 g ai/ha (1×)): 6; Classification and statistics of the grade of pesticide damage: Grade 1 ([3]; topramezone 25 g ai/ha (1×)): 6; Classification and statistics of the grade of pesticide damage: Grade 2 ([3]; topramezone 25 g ai/ha (1×)): 4; Classification and statistics of the grade of pesticide damage: Grade 3 ([3]; topramezone 25 g ai/ha (1×)): 0; Classification and statistics of the grade of pesticide damage: Grade 0 ([3]; topramezone 100 g ai/ha (4×)): 3; Classification and statistics of the grade of pesticide damage: Grade 1 ([3]; topramezone 100 g ai/ha (4×)): 8; Classification and statistics of the grade of pesticide damage: Grade 2 ([3]; topramezone 100 g ai/ha (4×)): 5; Classification and statistics of the grade of pesticide damage: Grade 3 ([3]; topramezone 100 g ai/ha (4×)): 0; Scores ([3]; topramezone 25 g ai/ha (1×)): 29; Scores ([3]; topramezone 100 g ai/ha (4×)): 38; Resistance evaluation ([3]; topramezone 25 g ai/ha (1×)): moderately; Resistance evaluation ([3]; topramezone 100 g ai/ha (4×)): poorly
